{
  "source": "IntAct's records for PubMed 34502139",
  "parents": {"B1": {"name": "Mitochondrial import receptor subunit TOM70 (Homo sapiens), O94826 (parent)", "chain": "MAASKPVEAAVVAAAVPSSGSGVGGGGTAGPGTGGLPRWQLALAVGAPLLLGAGAIYLWSRQQRRREARGRGDASGLKRNSERKTPEGRASPAPGSGHPEGPGAHLDMNSLDRAQAAKNKGNKYFKAGKYEQAIQCYTEAISLCPTEKNVDLSTFYQNRAAAFEQLQKWKEVAQDCTKAVELNPKYVKALFRRAKAHEKLDNKKECLEDVTAVCILEGFQNQQSMLLADKVLKLLGKEKAKEKYKNREPLMPSPQFIKSYFSSFTDDIISQPMLKGEKSDEDKDKEGEALEVKENSGYLKAKQYMEEENYDKIISECSKEIDAEGKYMAEALLLRATFYLLIGNANAAKPDLDKVISLKEANVKLRANALIKRGSMYMQQQQPLLSTQDFNMAADIDPQNADVYHHRGQLKILLDQVEEAVADFDECIRLRPESALAQAQKCFALYRQAYTGNNSSQIQAAMKGFEEVIKKFPRCAEGYALYAQALTDQQQFGKADEMYDKCIDLEPDNATTYVHKGLLQLQWKQDLDRGLELISKAIEIDNKCDFAYETMGTIEVQRGNMEKAIDMFNKAINLAKSEMEMAHLYSLCDAAHAQTEVAKKYGLKPPTL"}},
  "data": [
    {"variants_of": "B1", "conditions": "with orf9b_sars2 orf9b", "values": [
      {"variant": "E477A", "effect of a mutation on the interaction": "decreasing interaction strength"}
    ]},
    {"variants_of": "B1", "conditions": "with orf9b_sars2 orf9b", "remark": "another data set of the same source", "values": [
      {"variant": "R192A", "effect of a mutation on the interaction": "decreasing interaction strength"}
    ]}
  ]
}
